The target in one test is HLA-A*02:02. Description: IEDB peptide-MHC binding, purified MHC/competitive/radioactivity; filed as Kd, often an IC50 or EC50 that approximates it; ≥ and ≤ were set here for values at or beyond the usual limits of such assays.
The next test addresses HLA-A*02:03. The description is as above.
A further test concerns the target HLA-A*02:06. The description is as above.
Another test addresses HLA-A*30:02. Described as above.
The target of the next test is HLA-A*03:01. Description: IEDB peptide-MHC binding, purified MHC/direct/fluorescence; filed as Kd, often an IC50 or EC50 that approximates it; ≥ and ≤ were set here for values at or beyond the usual limits of such assays. The note with it: source organism: Mammarenavirus juninense.
Another test deals with HLA-A*01:01. Description: IEDB peptide-MHC binding, purified MHC/competitive/radioactivity; filed as Kd, often an IC50 or EC50 that approximates it; ≥ and ≤ were set here for values at or beyond the usual limits of such assays.
A further test has as its target HLA-A*24:02. The description is as above.
The next test addresses HLA-A*23:01. The description is as above.
The next test deals with HLA-A*26:01. The test is described as above.
A further test deals with HLA-A*02:01. Description: IEDB peptide-MHC binding, purified MHC/direct/fluorescence; filed as Kd, often an IC50 or EC50 that approximates it; ≥ and ≤ were set here for values at or beyond the usual limits of such assays.
The mark [1] stands for this setting: source organism: Vaccinia virus WR.
[2] abbreviates: source organism: Dengue virus 4 Philippines/H241/1956.
Setting [3] is: source organism: Mammarenavirus juninense.
[4] abbreviates: source organism: Dengue virus 2 Jamaica/1409/1983.
[5] abbreviates: source organism: Dengue virus 3 Martinique/1243/1999.
The mark [6] stands for this setting: source organism: Dengue virus 1 Brazil/97-11/1997.
[7] abbreviates: source organism: Dengue virus 4 Dominica/814669/1981.
[8] abbreviates: source organism: SARS coronavirus Tor2.

As usually defined, the Kd is the free concentration of one partner at which half of the binding sites on the other are occupied at equilibrium, for simple one-to-one binding.

In the case of TTENAAYQVL, the Kd in the test with HLA-A*02:02 (setting [1]) is no less than 29700 nM; in the test with HLA-A*02:03 (setting [1]), no less than 70400 nM; in the test with HLA-A*02:06 (setting [1]) it was no less than 69800 nM.

QKAALSEGVY: the Kd in the test with HLA-A*30:02 (source organism: Dengue virus 4 Singapore/8976/1995) amounted to 139 nM.

SLVITYCLV: the results for the Kd with HLA-A*02:02 (setting [1]), with HLA-A*02:03 (setting [1]) and with HLA-A*02:06 (setting [1]) were 1690 nM, 201 nM and 269 nM, respectively.

As for TLFIDRGSI, the Kd is 2100 nM in the test with HLA-A*02:02 (setting [1]), 802 nM with HLA-A*02:03 (setting [1]) and no less than 77100 nM with HLA-A*02:06 (setting [1]).

Regarding ALINLVQYRI, the figures for the Kd with HLA-A*02:02 (setting [1]), with HLA-A*02:03 (setting [1]) and with HLA-A*02:06 (setting [1]) were 8.32 nM, 81.6 nM and 417 nM, respectively.

For NLYISDYKML, the values for the Kd with HLA-A*02:02 (setting [1]), with HLA-A*02:03 (setting [1]) and in the test with HLA-A*02:06 (setting [1]) were 1250 nM, 1830 nM and no less than 36000 nM, respectively.

The sequence SLFNRGRLK showed a Kd with HLA-A*03:01 of 42.4 nM.

As for ISSTPFAEY, the Kd with HLA-A*30:02 (setting [2]) was determined as 319 nM; with HLA-A*01:01 (setting [2]), 1890 nM.

On to AYSLTLQGL, for which, in the test with HLA-A*24:02 (source organism: Homo sapiens), the Kd was 45 nM.

As for ALNIALVAV, the Kd with HLA-A*02:02 (setting [3]) came out at 15.3 nM; with HLA-A*02:03 (setting [3]), 4.46 nM; in the test with HLA-A*02:06 (setting [3]) it was 370 nM.

For the sequence LYAVATTFVT, the Kd in the test with HLA-A*24:02 (setting [4]) stood at 550 nM.

As for AADLTQIFEV, the Kd amounted to 1240 nM with HLA-A*02:02 (setting [1]), 404 nM with HLA-A*02:03 (setting [1]) and 10.9 nM with HLA-A*02:06 (setting [1]).

Regarding PYMPTVIEHL, the Kd with HLA-A*23:01 (setting [5]) is 43.4 nM; in the test with HLA-A*24:02 (setting [5]), 46.2 nM.

Turning to VFGTAYGVLF, the Kd was determined as 34.4 nM in the test with HLA-A*23:01 (setting [6]) and 73.7 nM in the test with HLA-A*24:02 (setting [6]).

As for TWMDLLRALI, the Kd with HLA-A*23:01 (setting [2]) turned out to be 21.7 nM; in the test with HLA-A*24:02 (setting [2]), 128 nM.

As to DTIETLMLL, the equilibrium dissociation constant (Kd) with HLA-A*26:01 (setting [6]) stood at 141 nM.

On to ELIDGISLGL, for which, in the test with HLA-A*26:01 (setting [7]), the Kd amounted to 500 nM.

PIPYSRVNHA: the Kd in the test with HLA-A*02:02 (setting [1]) was determined as 11700 nM; in the test with HLA-A*02:03 (setting [1]) it was 15300 nM; with HLA-A*02:06 (setting [1]), 1450 nM.

In the case of GMSIVCIVAA, the Kd with HLA-A*02:02 (setting [1]) amounted to 161 nM; with HLA-A*02:03 (setting [1]), 231 nM; in the test with HLA-A*02:06 (setting [1]) it was 1220 nM.

Regarding ISQHNYRPGY, the Kd with HLA-A*30:02 (setting [6]) amounted to 83.8 nM; with HLA-A*01:01 (setting [6]), 11100 nM.

On to QVKELGIAI, for which the Kd in the test with HLA-A*02:02 (setting [1]) was found to be 9050 nM; with HLA-A*02:03 (setting [1]), 882 nM; in the test with HLA-A*02:06 (setting [1]), 3710 nM.

Turning to PTSETMYLTM, the Kd amounted to 862 nM with HLA-A*02:02 (setting [1]), 191 nM with HLA-A*02:03 (setting [1]) and 915 nM in the test with HLA-A*02:06 (setting [1]).

For the sequence YVEHDPRLV, the Kd in the test with HLA-A*02:02 (setting [1]) is 1180 nM; in the test with HLA-A*02:03 (setting [1]) it was 711 nM; with HLA-A*02:06 (setting [1]) it was no less than 22500 nM.

For the sequence VLALYSPPL, the Kd with HLA-A*02:02 (setting [1]) was found to be 0.224 nM; in the test with HLA-A*02:03 (setting [1]), 0.412 nM; with HLA-A*02:06 (setting [1]), 32.6 nM.

Turning to STITLLCLI, the Kd with HLA-A*26:01 (setting [7]) is 867 nM.

In the test with HLA-A*02:01 (source organism: Influenza A virus (A/turkey/Canada-Ontario/NS-01839-1/05(H3))), ILDGKNCTL displayed a Kd of 95.1 nM.

On to EFFLIVLLI, for which the Kd in the test with HLA-A*24:02 (setting [4]) came to 3050 nM.

Turning to ILWDYFSLV, the Kd with HLA-A*02:01 (source organism: Mammarenavirus amapariense) is 0.2 nM.

With PTRTWKVLSI, the Kd with HLA-A*02:02 (setting [1]) is no less than 41900 nM; with HLA-A*02:03 (setting [1]), 15100 nM; in the test with HLA-A*02:06 (setting [1]), no less than 69800 nM.

In the case of LMANLAPHLL, the Kd came to 0.228 nM with HLA-A*02:02 (setting [8]), 1.46 nM with HLA-A*02:03 (setting [8]) and 115 nM with HLA-A*02:06 (setting [8]).

For the sequence NSEQGGRAY, the Kd with HLA-A*01:01 (source organism: Dengue virus 1 Singapore/S275/1990) was found to be 316 nM.

For VIPDELIDV, the values for the Kd with HLA-A*02:02 (setting [1]), in the test with HLA-A*02:03 (setting [1]) and with HLA-A*02:06 (setting [1]) were 609 nM, 43.8 nM and 556 nM, respectively.

In the case of ISYKDREWCF, in the test with HLA-A*24:02 (setting [2]), the Kd stood at 1020 nM.

As to VIDLEPISY, in the test with HLA-A*01:01 (setting [2]), the Kd came to 51.7 nM.

As to GAFMYTKHSM, the Kd in the test with HLA-A*02:02 (setting [1]) came out at 544 nM; with HLA-A*02:03 (setting [1]), 458 nM; in the test with HLA-A*02:06 (setting [1]), 3140 nM.

Take KTEHCDDFMT: the values for the Kd with HLA-A*02:02 (setting [1]), with HLA-A*02:03 (setting [1]) and with HLA-A*02:06 (setting [1]) were 7820 nM, no less than 37700 nM and 11600 nM, respectively.

As for ILDNAAKYV, the values for the Kd with HLA-A*02:02 (setting [1]), with HLA-A*02:03 (setting [1]) and with HLA-A*02:06 (setting [1]) were 126 nM, 261 nM and 1810 nM, respectively.

For LMSFTILCLV, the values for the Kd with HLA-A*02:02 (setting [8]), with HLA-A*02:03 (setting [8]) and with HLA-A*02:06 (setting [8]) were 0.338 nM, 90.6 nM and 39.6 nM, respectively.

Turning to PYLGKREDQW, the Kd in the test with HLA-A*23:01 (setting [4]) stood at 1390 nM; with HLA-A*24:02 (setting [4]), 2980 nM.

As to VFGSVYTTMF, the Kd with HLA-A*23:01 (setting [2]) amounted to 57.3 nM; with HLA-A*24:02 (setting [2]) it was 1170 nM.

Turning to FMSHVKSVT, the figures for the Kd in the test with HLA-A*02:02 (setting [1]), with HLA-A*02:03 (setting [1]) and with HLA-A*02:06 (setting [1]) were 508 nM, 181 nM and 4320 nM, respectively.

Source of the values: the Immune Epitope Database (IEDB).
